Article PMC4586593
Where two headings read alike, the source gives them in different places.

Experiments:
[1] = target: unphosphorylated smooth muscle myosin (SMM) filaments stabilized against ATP-induced disassembly (UniProt P10587)
[2] = target: unphosphorylated smooth muscle myosin (SMM) filaments stabilized against ATP-induced disassembly (UniProt P10587); remark: listed apart in the source

Kd [1]: 1300 nM
Kd [2]: 1500 nM
Substance: smooth muscle MLCK, short isoform, from chicken gizzard, unlabeled (enzyme)
